Some results are limits rather than exact numbers.

The target in assay [1] is fibrin clots formed in human plasma (human (endogenous in plasma)) (UniProt P02679). Nature of the assay: co-sedimentation; enhanced clots: as the plasma clots but with extra fibrinogen (2 mg/ml) added; 40 min, 37°C; 70 mM, 140 mM or 1 M salt; washed with reaction buffer (HEPES-1/2-saline at 70 mM).
The target of assay [2] is fibrin made from purified fibrinogen with thrombin (UniProt P02679). The assay can be described thus: radioligand binding; 125I-ligand (100,000 cpm) on fibrin-coated wells in veronal buffer ([…] sodium barbital, […] CaCl2, 0.5 mM MgCl2, pH 7.4) with 20, 75 or 150 mM NaCl; 30 min, 37°C; washes at the same NaCl.
Assay [3] addresses fibrin clots formed in human plasma (human (endogenous in plasma)) (UniProt P02679). Nature of the assay: co-sedimentation; panel of 125I-labelled plasma proteins (25,000 cpm each) present while enhanced clots formed in plasma; 16 h, 37°C; clots washed three times in 10 mM HEPES, 70 mM NaCl, 0.5 mM EDTA, 5 M urea pH 7.4.
The target is the same in assay [4]. The assay can be described thus: co-sedimentation; time course: enhanced clots formed in plasma with 125I-ligand (25,000 cpm), eight times from 0 to 960 min at 37°C; washed three times with 10 mM HEPES, 70 mM NaCl, 0.5 mM EDTA, 5 M urea pH 7.4; what stays is judged covalently bound.
The target in assay [5] is fibrin made from purified fibrinogen with thrombin (UniProt P02679). Nature of the assay: radioligand binding; saturation: fixed 125I-factor H (250,000 cpm, 80 ng/well) mixed with unlabeled factor H (0-5,120 ng/well) on fibrin-coated wells; 30 min, 37°C.
Assay [6] shares this target. Nature of the assay: radioligand binding; serial dilutions of 125I-ligand from 500,000 cpm/well on fibrinogen-, fibrin- or BSA-coated Maxisorp wells; 30 min, 37°C; 25 mM HEPES-0.1% Tween 20 pH 7.4 (20 mM in the legend), without or with 5 mg/ml fluid-phase BSA; bound label eluted with 0.1 M NaOH; Scatchard plot.
Assay [7] addresses fibrin clots formed in human plasma (human (endogenous in plasma)) (UniProt P02679). The assay can be described thus: ELISA; levels of endogenous factor H (captured on monoclonal MRCOX23) and C1q (captured on ovalbumin antigen-antibody complexes) in citrated plasma and in the serum from the same plasma; the loss on clotting is taken as binding to clots.
For assay [8] the target is unchanged. Nature of the assay: cross-linking; 125I-ligand (25,000 cpm) with 0.9% plasma and 20 μg fibrinogen in 50 μl HEPES-1/2-saline, 20 mM CaCl2, 16 h, 37°C; cross-linking by the FXIIIa of the plasma; washed clots on reducing SDS-PAGE (4-12%), autoradiography.
In assay [9] the target is fibrin made from purified fibrinogen with thrombin (UniProt P02679). The assay can be described thus: radioligand binding; inhibition: 125I-factor H (2 μg/well) premixed on ice with unlabeled factor H (0-30 μg/well) or ovalbumin, on fibrin-coated wells; 30 min, 37°C.
The target of assay [10] is fibrin clots formed in human plasma (human (endogenous in plasma)) (UniProt P02679). The assay can be described thus: co-sedimentation; clots formed in 45% human plasma with 20 mM CaCl2 in the presence of 125I-ligand (25,000 cpm), 40 min, 37°C, at about 70 mM, 140 mM or 1 M salt; clots spun at 1,000 x g and washed three times in reaction buffer; bound = input minus cpm in supernatants.

Assay [11] concerns the target fibrin made from purified fibrinogen with thrombin (UniProt P02679). The assay can be described thus: co-sedimentation; fibrin-only clots: 3.5 mg/ml purified fibrinogen with 125I-ligand (25,000 cpm) in 10 mM HEPES, 70 mM NaCl, 5 mM CaCl2 pH 7.4, clotted with thrombin (8.75 μg/ml), 40 min, 37°C; washed with HEPES-1/2-saline.
The target of assay [12] is fibrin clots formed in human plasma (human (endogenous in plasma)) (UniProt P02679). Nature of the assay: co-sedimentation; time course: enhanced clots formed in plasma with 125I-ligand (25,000 cpm), eight times from 0 to 960 min at 37°C; washed with HEPES-1/2-saline (non-denaturing).

UniProt P02679, sequence (P02679 whole entry, looked up): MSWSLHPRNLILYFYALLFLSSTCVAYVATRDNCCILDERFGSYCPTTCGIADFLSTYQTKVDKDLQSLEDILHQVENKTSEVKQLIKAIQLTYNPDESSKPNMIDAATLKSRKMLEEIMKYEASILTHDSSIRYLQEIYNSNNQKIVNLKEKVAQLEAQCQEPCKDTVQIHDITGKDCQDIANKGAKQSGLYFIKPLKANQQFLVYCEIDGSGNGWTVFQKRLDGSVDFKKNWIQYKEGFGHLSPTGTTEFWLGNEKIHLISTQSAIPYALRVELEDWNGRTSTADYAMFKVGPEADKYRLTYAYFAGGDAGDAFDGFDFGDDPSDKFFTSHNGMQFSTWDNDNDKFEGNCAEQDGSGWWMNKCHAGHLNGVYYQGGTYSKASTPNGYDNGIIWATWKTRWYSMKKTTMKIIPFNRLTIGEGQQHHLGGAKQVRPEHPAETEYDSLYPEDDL
factor H, sequence (P08603 19-1231): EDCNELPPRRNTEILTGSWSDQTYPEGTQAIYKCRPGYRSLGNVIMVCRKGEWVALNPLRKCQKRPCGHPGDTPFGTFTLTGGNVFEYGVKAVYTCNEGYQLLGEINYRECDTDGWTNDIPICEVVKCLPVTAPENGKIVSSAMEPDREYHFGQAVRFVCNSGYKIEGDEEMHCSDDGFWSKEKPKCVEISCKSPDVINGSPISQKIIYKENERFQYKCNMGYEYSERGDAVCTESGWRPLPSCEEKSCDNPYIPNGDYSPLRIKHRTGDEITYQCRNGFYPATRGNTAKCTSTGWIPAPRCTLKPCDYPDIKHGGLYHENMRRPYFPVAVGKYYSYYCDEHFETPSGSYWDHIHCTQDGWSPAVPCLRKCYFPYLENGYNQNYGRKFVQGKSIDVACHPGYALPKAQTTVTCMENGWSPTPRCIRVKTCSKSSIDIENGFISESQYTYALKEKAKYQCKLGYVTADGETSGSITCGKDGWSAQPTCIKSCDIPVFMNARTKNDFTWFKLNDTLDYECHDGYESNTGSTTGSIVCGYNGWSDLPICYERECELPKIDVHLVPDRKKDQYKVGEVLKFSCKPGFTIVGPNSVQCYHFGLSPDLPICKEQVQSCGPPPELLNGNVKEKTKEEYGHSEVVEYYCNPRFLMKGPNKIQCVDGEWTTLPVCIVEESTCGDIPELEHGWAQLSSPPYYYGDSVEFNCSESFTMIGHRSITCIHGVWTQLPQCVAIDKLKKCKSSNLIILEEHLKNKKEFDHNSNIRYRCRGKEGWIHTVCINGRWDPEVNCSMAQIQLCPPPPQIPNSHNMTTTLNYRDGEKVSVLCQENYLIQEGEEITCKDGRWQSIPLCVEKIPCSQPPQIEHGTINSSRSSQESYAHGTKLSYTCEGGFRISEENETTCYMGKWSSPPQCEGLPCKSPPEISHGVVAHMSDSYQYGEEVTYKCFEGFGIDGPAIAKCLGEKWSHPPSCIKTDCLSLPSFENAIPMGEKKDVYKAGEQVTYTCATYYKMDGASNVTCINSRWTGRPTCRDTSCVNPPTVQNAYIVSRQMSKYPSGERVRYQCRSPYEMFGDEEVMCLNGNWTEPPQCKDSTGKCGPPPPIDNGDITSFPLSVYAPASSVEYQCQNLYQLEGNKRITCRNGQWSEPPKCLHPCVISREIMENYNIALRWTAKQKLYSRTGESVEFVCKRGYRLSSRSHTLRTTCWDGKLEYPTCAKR

Regarding “factor H (from UniProt P08603 19-1231) (natural protein)”, in [1], the fold increase of percent bound, enhanced clots over plasma clots without added fibrinogen, at 140 mM NaCl is 6 fold and the percent bound to enhanced plasma clots (HEPES-1/2-saline wash) was found to be 21.5%. Besides, in assay [2], the binding at 75 mM NaCl relative to that at 20 mM NaCl was below 50%. Moreover, in assay [3], the Protein incorporated into fibrin clots (%) was 28.7% and the percent bound to fibrin clots was determined as 30%. Moreover, in assay [4], the percent bound at 30 min, after urea wash turned out to be 13%; the percent bound at 96 min, after urea wash worked out at 18%; the percent bound at 960 min, after urea wash was 32.5%. In [5], this substance showed a percent of input bound at saturation (input 3.5 μg/well) of 0.1%. Besides, in [6], the equilibrium dissociation constant (Kd) (in general, a measure of binding affinity in units of concentration) worked out at 0.055 nM and the percent of input bound (500,000 cpm/well) is 1.7%. The percent of the plasma level lost in the serum of the same plasma (healthy volunteer sample) in [7] is 38%. In assay [8], this substance gave a percent of 125I-factor H in the large cross-linked aggregate that did not enter the gel of 5.2%. Moreover, the percent inhibition of the binding of 125I-factor H at an equal molar ratio of unlabeled to labeled factor H in assay [9] stood at 48%. For the same substance, in assay [10], the percent bound to plasma clots at 70 mM salt stood at 21.5%. The percent bound to fibrin-only clots (HEPES-1/2-saline wash) in assay [11] was found to be 19%. For the same substance, in assay [12], the percent bound at 30 min, non-denaturing wash was 22% and the percent bound at 96 min, non-denaturing wash amounted to 26%.
For the substance plasminogen (natural protein), in assay [3], the Protein incorporated into fibrin clots (%) came to 32.8% and the percent bound to fibrin clots was 31%.
